Km, Vmax and kcat data for 1 substance are collected here from paper PMC9122207, “PTEN differentially regulates endocytosis, migration, and proliferation in the enteric protozoan parasite Entamoeba histolytica” (PLoS Pathogens, 2022).

What all share (experiment): malachite green phosphate release, Lineweaver-Burk
Holding throughout (format): biochemical, Entamoeba histolytica
What all share (details): 100 mM MOPS pH 6.0, 37°C, 40 min, di-C8 lipid

In data set [1] the test system is CCCCCCCC(=O)OC[C@H](COP(=O)(O)O[C@@H]1[C@H](O)[C@H](OP(=O)(O)O)[C@@H](O)[C@H](OP(=O)(O)O)[C@H]1O)OC(=O)CCCCCCC. From the text: (§1) malachite green phosphate release, Lineweaver-Burk on EhPTEN1
The test system of data set [2] is CCCCCCCC(=O)OC[C@H](COP(=O)(O)O[C@H]1[C@H](O)[C@@H](O)[C@H](OP(=O)(O)O)[C@@H](OP(=O)(O)O)[C@H]1O)OC(=O)CCCCCCC.
From the text: as §1

The subject of data set [3] is CCCCCCCC(=O)OC[C@H](COP(=O)(O)O[C@H]1[C@H](O)[C@@H](OP(=O)(O)O)[C@H](OP(=O)(O)O)[C@@H](OP(=O)(O)O)[C@H]1O)OC(=O)CCCCCCC.
From the text: as §1

“EhPTEN1 (Entamoeba histolytica HM-1:IMSS)”: in data set [1], the Km was determined as 161 ± 20.1 µM, the Vmax was 0.0084 µmol/min/mg and the kcat was 0.0025 ± 0.000167 s⁻¹. For the same substance, in data set [2], the Km worked out at 292 ± 18.8 µM, the maximum rate (Vmax) is 0.00602 µmol/min/mg and the catalytic constant (kcat) came to 0.00183 ± 0.000333 s⁻¹. Besides, in data set [3], the Km came out at 92.5 ± 4.72 µM, the maximal velocity (Vmax) was 0.0169 µmol/min/mg and the kcat was 0.00517 ± 0.0005 s⁻¹.

As usually defined, the Km is the substrate concentration at which the rate is half of its maximum. The Vmax is the top rate of the reaction or transport when substrate is in excess. What is called kcat is the maximal rate divided by the concentration of active sites.
